Results from PMC4128672.

Biological target: CDC42 (cell division cycle 42) (rat (endogenous in rat testis)) (UniProt Q8CFN2)
Assay: proximity ligation; Duolink II in situ PLA on Bouin-fixed, paraffin-embedded rat testis sections; antigen retrieval in citrate buffer (10 mM, pH 6.0, 0.05% Tween 20); anti-ApoH goat polyclonal 2.5 ug/ml and anti-CDC42 rabbit polyclonal 5 ug/ml; probes anti-rabbit PLUS and anti-goat MINUS; controls with one primary antibody only

UniProt Q8CFN2, sequence (Q8CFN2 whole entry): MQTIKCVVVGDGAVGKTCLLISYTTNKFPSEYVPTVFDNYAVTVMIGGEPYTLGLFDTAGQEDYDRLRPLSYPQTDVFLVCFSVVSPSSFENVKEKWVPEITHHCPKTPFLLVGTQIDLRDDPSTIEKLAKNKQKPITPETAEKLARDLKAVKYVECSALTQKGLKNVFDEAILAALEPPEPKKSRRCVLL

APOH (apolipoprotein H) (from UniProt P26644 20-297) (natural protein)
PLA signals per 0.25 mm^2 (PLA signals/0.25 mm^2): 312
